Test results published in publication PMC5681996.

Experiments:
TDP-43 WT [1] = target: T1, TDP-43 WT (UniProt Q13148 1-414); assay: EMSA
TDP-43 WT [2] = target: T1, TDP-43 WT; assay: CD
TDP-43 WT [3] = target: T1, TDP-43 WT; assay: CD; remark: listed apart in the source

T1 sequence (Q13148 whole entry): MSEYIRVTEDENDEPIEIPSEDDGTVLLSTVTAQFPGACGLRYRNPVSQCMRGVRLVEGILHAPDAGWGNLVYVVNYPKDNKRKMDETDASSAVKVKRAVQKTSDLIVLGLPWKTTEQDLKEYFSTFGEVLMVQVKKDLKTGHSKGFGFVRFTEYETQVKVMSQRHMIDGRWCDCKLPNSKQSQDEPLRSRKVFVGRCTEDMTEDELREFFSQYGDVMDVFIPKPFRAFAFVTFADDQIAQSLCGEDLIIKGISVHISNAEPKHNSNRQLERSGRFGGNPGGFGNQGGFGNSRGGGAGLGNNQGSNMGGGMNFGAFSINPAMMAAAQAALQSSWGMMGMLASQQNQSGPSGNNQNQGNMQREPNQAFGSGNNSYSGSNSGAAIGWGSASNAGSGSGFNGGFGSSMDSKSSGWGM

| Binder | binding result (TDP-43 WT [1]) | other results |
| --- | --- | --- |
| UGGAAUGGAAUGGAAUGGAAUGGAAUGGAAUGGAAUGGAA (ssRNA) [(UGGAA)8] | binds | – |
| UGUGUGUG (ssRNA) [(UG)4] | – | binding result (TDP-43 WT [2]): binds |
| UGGAAUGGAAUGGAAUGGAA (ssRNA) [(UGGAA)4] | – | binding result (TDP-43 WT [3]): binds |
| UGUGUGUGUGUGUGUG (ssRNA) [(UG)8] | binds | – |
